From IntAct's records for PubMed 29039417

B1: BBSome complex member BBS4 (Homo sapiens), Q96RK4 (parent)
chain: MAEERVATRTQFPVSTESQKPRQKKAPEFPILEKQNWLIHLHYIRKDYEACKAVIKEQLQETQGLCEYAIYVQALIFRLEGNIQESLELFQTCAVLSPQSADNLKQVARSLFLLGKHKAAIEVYNEAAKLNQKDWEISHNLGVCYIYLKQFNKAQDQLHNALNLNRHDLTYIMLGKIHLLEGDLDKAIEVYKKAVEFSPENTELLTTLGLLYLQLGIYQKAFEHLGNALTYDPTNYKAILAAGSMMQTHGDFDVALTKYRVVACAVPESPPLWNNIGMCFFGKKKYVAAISCLKRANYLAPFDWKILYNLGLVHLTMQQYASAFHFLSAAINFQPKMGELYMLLAVALTNLEDIENAKRAYAEAVHLDKCNPLVNLNYAVLLYNQGEKKNALAQYQEMEKKVSLLKDNSSLEFDSEMVEMAQKLGAALQVGEALVWTKPVKDPKSKHQTTSTSKPASFQQPLGSNQALGQAMSSAAAYRTLPSGAGGTSQFTKPPSLPLEPEPAVESSPTETSEQIREK
partner: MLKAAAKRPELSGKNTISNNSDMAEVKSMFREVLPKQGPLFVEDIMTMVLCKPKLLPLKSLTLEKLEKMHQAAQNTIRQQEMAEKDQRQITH

Variants of: B1
Settings: with bbip1_human BBIP1, A8MTZ0

effect of a mutation on the interaction	Variant
with no effect	A289K
disrupting interaction strength	A289V
with no effect	A289E
with no effect	L312E
disrupting interaction strength	L312P
disrupting interaction strength	L312H
disrupting interaction strength	L312T
with no effect	L312A
with no effect	L312K
with no effect	T316K
with no effect	T316E
with no effect	T316A
with no effect	Y286A
with no effect	Y286K
with no effect	Y286E
with no effect	V287A
with no effect	V287K
with no effect	V287E
with no effect	E268A
with no effect	E268K
with no effect	S269A
with no effect	S269K
with no effect	S269E
with no effect	I276A
with no effect	I276K

effect of a mutation on the interaction	Variant
with no effect	I276E
with no effect	F302A
with no effect	F302E
with no effect	F302K
with no effect	G277A
with no effect	G277K
with no effect	G277E
with no effect	Q318A
with no effect	Q318K
with no effect	Q318E
with no effect	I290K
with no effect	I290A
with no effect	I290E
with no effect	Y308E
with no effect	Y308A
with no effect	Y308K
with no effect	P270E
with no effect	P270A
with no effect	P270K
disrupting interaction strength	M278T
with no effect	M278K
with no effect	M278A
disrupting interaction strength	M278L
with no effect	M278E
with no effect	R295E

effect of a mutation on the interaction	Variant
with no effect	R295A
with no effect	R295K
with no effect	D303E
with no effect	D303K
with no effect	D303A
with no effect	N297E
with no effect	N297A
with no effect	N297K
with no effect	G311K
with no effect	G311E
with no effect	G311A
disrupting interaction strength	G311D
with no effect	L307A
disrupting interaction strength	L307P
with no effect	L307K
with no effect	L307E
with no effect	Y320E
with no effect	Y320K
with no effect	Y320A
disrupting interaction strength	Y320C
with no effect	L293K
with no effect	L293E
with no effect	L293A
with no effect	L272A
with no effect	L272K

effect of a mutation on the interaction	Variant
with no effect	L272E
with no effect	Q319A
with no effect	Q319K
with no effect	Q319E
with no effect	W304K
with no effect	W304A
with no effect	W304E
disrupting interaction strength	W304R
with no effect	Y298K
with no effect	Y298E
with no effect	Y298A
disrupting interaction strength	L310W
with no effect	L310E
with no effect	L310K
disrupting interaction strength	L310S
with no effect	L310A
with no effect	N274E
with no effect	N274K
with no effect	N274A
with no effect	S322A
with no effect	S322E
with no effect	V313A
with no effect	V313E
with no effect	V313K
with no effect	C279E

effect of a mutation on the interaction	Variant
with no effect	C279A
with no effect	C279K
with no effect	W273E
with no effect	W273K
with no effect	W273A
with no effect	M317K
with no effect	M317A
with no effect	M317E
with no effect	K283A
with no effect	K283E
with no effect	G282E
with no effect	G282A
with no effect	G282K
with no effect	F280E
with no effect	F280A
with no effect	F280K
with no effect	L315K
with no effect	L315A
disrupting interaction strength	L315S
with no effect	L315E
with no effect	A321E
with no effect	A321K
with no effect	K284A
with no effect	K284E
with no effect	P301K

effect of a mutation on the interaction	Variant
disrupting interaction strength	P301S
disrupting interaction strength	P301L
with no effect	P301E
with no effect	P301A
with no effect	I306A
disrupting interaction strength	I306P
with no effect	I306E
with no effect	I306K
disrupting interaction strength	I306T
with no effect	K285E
with no effect	K285A
with no effect	N275K
with no effect	N275A
with no effect	N275E
with no effect	H314A
with no effect	H314K
with no effect	H314E
disrupting interaction strength	H314P
with no effect	S291E
with no effect	S291A
with no effect	S291K
with no effect	K294E
with no effect	K294A
with no effect	A300K
with no effect	A300E

effect of a mutation on the interaction	Variant
with no effect	A296E
with no effect	A296K
disrupting interaction strength	A296V
with no effect	N309A
with no effect	N309E
with no effect	N309K
disrupting interaction strength	N309D
with no effect	A288K
with no effect	A288E
with no effect	P271E
with no effect	P271A
with no effect	P271K
with no effect	K305A
with no effect	K305E
with no effect	C292K
disrupting interaction strength	C292R
with no effect	C292A
with no effect	C292E
with no effect	L299A
with no effect	L299K
with no effect	L299E
with no effect	F281K
with no effect	F281A
disrupting interaction strength	F281S
with no effect	F281E

Variants of: B1
Settings: with bbip1_human BBIP1, A8MTZ0
Remark: another data set of the same source

effect of a mutation on the interaction	Variant
disrupting interaction strength	N377Y
